The values below come from paper PMC6168492.

The target of test [1] is MSA-hDI (MSA with human DI, residues 1-190 from HSA) with C-terminal GST (human | mouse). The test can be described thus: SPR; Biacore T200; albumin variants amine-coupled on CM5 (~200 or 500 RU); monomeric His-tagged hFcRn or mFcRn injected in serial dilutions; phosphate buffer (177 mM phosphate, 85 mM NaCl, 0.05% Tween 20) pH 5.5, 30 µl/min, 25 °C; 1:1 Langmuir model. In general terms: In SPR one partner is held on a chip, and binding of the other changes the refractive index at the surface.

The target in test [2] is MSA-hLoopI + II (MSA N83T/L87M/S111N/P114R) with C-terminal GST (mouse). The test is described as above.
The target in test [3] is HSA-mDI (HSA with mouse DI, residues 1-190 from MSA) with C-terminal GST (mouse | human). Described as above.
Test [4] has as its target HSA-mLoopI + II (HSA T83N/M87L/N111S/R114P) with C-terminal GST (human). Described as above.
Test [5] deals with MSA P573K with C-terminal GST (mouse). The description is as above.
The target of test [6] is DIII of HSA (residues 381-585) with C-terminal GST (human). The test is described as above.
The target of test [7] is HSA K573P with C-terminal GST (human). The test is described as above.
The target of test [8] is DIII of MSA (residues 381-584) with C-terminal GST (mouse). The test is described as above.
Test [9] concerns the target HSA R114P with C-terminal GST (human). The description is as above.
Test [10] has as its target HSA N111S with C-terminal GST (human). The test is described as above.
For test [11], the target named is wild-type mouse serum albumin with C-terminal GST (mouse). Kind of test: SPR; albumin immobilised (200 RU) on CM5 chip by amine coupling, serial dilutions of monomeric His-tagged FcRn injected; pH 5.5, 0.005% Tween20, 30 µl/min, 25 °C; 1:1 Langmuir model.
Chain of wild-type mouse serum albumin with C-terminal GST (mouse) (P07724 25-608): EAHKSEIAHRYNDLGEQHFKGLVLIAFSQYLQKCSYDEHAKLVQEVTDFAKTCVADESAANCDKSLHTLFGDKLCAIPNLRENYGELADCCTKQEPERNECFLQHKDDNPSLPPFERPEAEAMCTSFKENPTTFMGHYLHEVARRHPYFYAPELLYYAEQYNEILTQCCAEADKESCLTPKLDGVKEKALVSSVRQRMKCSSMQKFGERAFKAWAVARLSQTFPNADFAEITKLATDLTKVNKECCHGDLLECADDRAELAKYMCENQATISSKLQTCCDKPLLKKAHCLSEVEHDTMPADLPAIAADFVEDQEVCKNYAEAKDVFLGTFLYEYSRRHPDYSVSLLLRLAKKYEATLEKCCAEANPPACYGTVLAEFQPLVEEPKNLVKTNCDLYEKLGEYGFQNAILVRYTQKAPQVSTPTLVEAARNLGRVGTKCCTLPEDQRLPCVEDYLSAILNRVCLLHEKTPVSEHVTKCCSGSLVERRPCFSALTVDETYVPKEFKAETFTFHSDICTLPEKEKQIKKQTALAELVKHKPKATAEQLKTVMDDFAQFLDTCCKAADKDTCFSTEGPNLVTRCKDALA

For orientation: Kd means the concentration at which binding is half-saturated. For orientation: koff means the rate constant with which the complex falls apart. Usually kon stands for a measure of how fast the partners come together. As to “soluble monomeric His-tagged human neonatal Fc receptor (hFcRn) (from UniProt P55899 24-297; P61769 21-119)”, the Kd turned out to be 70.2 nM in test [1]; 145 nM in test [2]; 1440 nM in test [3]; 823 nM in [4]; 3670 nM in test [5]; 3170 nM in [6]. In addition, the Kd worked out at 22.2 nM in test [7], 119 nM in test [8], 554 nM in [9] and 162 nM in test [10]. In addition, the koff in test [1] was 0.0047 s⁻¹; in test [2] it was 0.0074 s⁻¹; in [3], 0.0202 s⁻¹; in test [4], 0.0214 s⁻¹; in [5], 0.0734 s⁻¹; in test [6], 0.0349 s⁻¹. The koff is 0.0006 s⁻¹ in test [7], 0.0057 s⁻¹ in test [8], 0.0122 s⁻¹ in [9] and 0.006 s⁻¹ in test [10]. For the same substance, the kon in [1] was 67000 M⁻¹ s⁻¹; in [2], 51000 M⁻¹ s⁻¹; in test [3], 14000 M⁻¹ s⁻¹; in test [4], 26000 M⁻¹ s⁻¹; in test [5], 20000 M⁻¹ s⁻¹; in test [6], 11000 M⁻¹ s⁻¹. Moreover, the kon in test [7] came out at 27000 M⁻¹ s⁻¹; in [8], 48000 M⁻¹ s⁻¹; in test [9], 22000 M⁻¹ s⁻¹; in test [10] it was 37000 M⁻¹ s⁻¹.
Take “soluble monomeric His-tagged mouse neonatal Fc receptor (mFcRn) (from UniProt Q61559 22-297; P01887 21-119)”: the Kd in test [1] was 705 nM; in test [2], 375 nM; in test [7], 1230 nM; in [8] it was 620 nM. Also, the koff amounted to 0.0148 s⁻¹ in test [1], 0.0075 s⁻¹ in test [2], 0.0197 s⁻¹ in test [7] and 0.0093 s⁻¹ in test [8]. For the same substance, the kon in test [1] turned out to be 21000 M⁻¹ s⁻¹; in test [2] it was 20000 M⁻¹ s⁻¹; in test [7], 16000 M⁻¹ s⁻¹; in test [8] it was 15000 M⁻¹ s⁻¹.
In test [11], “soluble mouse neonatal Fc receptor (mFcRn), His-tagged, monomeric (from UniProt Q61559 22-365; P01887 21-119)” showed a Kd of 324 nM, a koff of 0.0123 s⁻¹ and a kon of 38000 M⁻¹ s⁻¹.
